In patent US20230256114A1, “NOVEL MAYTANSINOIDS AS ADC PAYLOADS AND THEIR USE FOR THE TREATMENT OF CANCER” (priority 2020, published 2023):

Tests used:
[1] = Size exclusion chromatography (SEC) of ADC monomer and aggregates; assay type: physicochemical; conditions: anti-Trop-2 ADC with the named payload, Cysteine conjugation
Procedure: Some embodiments of the invention relate to DM1s linked to antibodies via a non-cleavable linker. In this example, anti-Trop-2 antibody was reduced by adding antibody to TCEP (Tris (2-carboxyethyl) phosphine) dissolved in a pH-adjusted PBS EDTA buffer. The antibody/TCEP solution was incubated at 37° C. for 2-3 hrs. The reduced antibodies were buffer exchanged into conjugation reaction buffer. The BI-P203 payload dissolved in DMSO was added to a solution of reduced anti-Trop-2 monoclonal antibody at payload/antibody ratio of 7-30:1 in order to achieve different drug to antibody ratios (DARs). The payload/antibody solution was incubated for 1-2 hr at 20° C. while the reduced antibody was conjugated to BI-P203 payload via the maleimide group. After conjugation was completed, the reaction mixture was desalted and concentrated to yield anti-Trop-2-DM1 ADCs. The biochemical properties of the resulting ADCs were characterized using size-exclusion chromatography high pressure liquid chromatography (SEC-HPLC) to determine purity and aggregation content, and by using hydrophobic interaction chromatography HPLC (HIC-HPLC) to confirm drug loading (DAR). The conjugation procedure is illustrated in FIG. 12. The final ADC products are comprised of four or six or seven DM1-linker molecules. The cysteine conjugation method used in the conjugation process produces more homogenous ADCs compared to lysine conjugation method.

[2] = system: MDA-MB-468, SK-BR-3, Colo205, and A549 cells; test: In vitro cytotoxicity assay of ADCs and free payloads (FIG. 20); assay type: cell-based; conditions: all tested cells
Procedure: Anti-Trop-2 ADCs were conjugated with different DM1 derivatives with similar DARs, and were tested ahead to ahead with anti-Trop-2-SMCC-DM1 and anti-Trop-2-vc-MMAE against BxPC-3 pancreatic cancer cells representing high Trop-2 expression, MDA-MB-468 breast cancer cells, N87 gastric cancer cells, and SK-BR-3 […] cancer cells representing moderate Trop-2 expression, Colo205 colon cancer cells representing low Trop-2 expression, and A549 lung cancer cells and MDA-MB-231 breast cancer cells with undetectable level of Trop-2. In vitro cytotoxicity assay was performed. Briefly, all cell lines were cultured in a suitable culture medium at 37° C. in a humidified incubator atmosphere of 5% CO2. Cells were plated in 96-well flat bottom plates. Cell seeding number ranged from 500 cells//100 ul/well to 6,000 cells/100 μl/well. Cells were allowed to adhere overnight at 37° C. in a humidified atmosphere of 5% CO2. ADCs were prepared from stock solution and diluted into appropriated working concentration 24 hours after cell seeding. […] Cell Counting Kit-8 solution (Dojindo China Co., Ltd, lot #PL701) was added to the wells for 1-4 hours at 37° C. and the absorbance at 450 nm was measured using a Microplate Reader (SpectraMax M5, Molecular Devices) and SoftMax Pro5.4.1 software. Dose-response curves were generated and IC50 was calculated using GraphPad Prism 7 three-parameter curve fitting. […]

[3] = target: T1, Trophoblast cell-surface antigen-2 (Trop-2) (human, UniProt P09758 27-323); test: cell-based or functional assay
T1 sequence (looked up): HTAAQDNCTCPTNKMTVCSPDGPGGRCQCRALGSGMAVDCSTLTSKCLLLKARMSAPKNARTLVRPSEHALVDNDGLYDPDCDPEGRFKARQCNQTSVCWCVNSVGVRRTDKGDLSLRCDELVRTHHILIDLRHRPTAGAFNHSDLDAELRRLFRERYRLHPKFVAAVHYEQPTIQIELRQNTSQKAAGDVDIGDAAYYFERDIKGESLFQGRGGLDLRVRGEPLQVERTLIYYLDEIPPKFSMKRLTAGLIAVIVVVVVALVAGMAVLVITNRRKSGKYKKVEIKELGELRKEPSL

For COc1cc2cc(c1Cl)N(C)C(=O)C[C@H](OC(=O)[C@H](C)N(C)C(=O)CCCCCn1cc(COCCOCCOCCOCCNC(=O)CCN3C(=O)C=CC3=O)nn1)[C@@]1(C)O[C@H]1[C@H](C)[C@@H]1C[C@@](O)(NC(=O)O1)C(OC)/C=C/C=C(\C)C2 (stereo partly shown) [BI-P204], the “Aggregation rate (%)” value ([1]; DAR 2.8) was 0.65%.

With COc1cc2cc(c1Cl)N(C)C(=O)C[C@H](OC(=O)[C@H](C)N(C)C(=O)COCCn1cc(COCCOCCOCCNC(=O)CCN3C(=O)C=CC3=O)nn1)C1(C)O[C@H]1[C@H](C)[C@@H]1C[C@@](O)(NC(=O)O1)C(OC)/C=C/C=C(\C)C2 (stereo partly shown) [BI-P209] the “in vitro cytotoxic potency of the free payload compared with free BI-P203” value [2] was “slightly more potent than free BI-P203” and the “Aggregation rate (%)” value ([1]; DAR 6.2) was 4.96%.

For COc1cc2cc(c1Cl)N(C)C(=O)C[C@H](OC(=O)C1CCC(CNC(=O)CCOCCOCCOCCOCCNC(=O)CCN3C(=O)C=CC3=O)CC1)[C@@]1(C)O[C@H]1[C@H](C)[C@@H]1C[C@@](O)(NC(=O)O1)C(OC)/C=C/C=C(\C)C2 (stereo partly shown) [BI-P208], the “Aggregation rate (%)” value ([1]; DAR 3.0) was 2.04%, the “Aggregation rate (%)” value ([1]; DAR 6.7) was 9.46% and the “Aggregation rate (%)” value ([1]; DAR 7.3) was 6.02%.

In the case of COc1cc2cc(c1Cl)N(C)C(=O)C[C@H](OC(=O)C1CCN(C(=O)CCOCCOCCOCCOCCNC(=O)CCN3C(=O)C=CC3=O)CC1)[C@@]1(C)O[C@H]1[C@H](C)[C@@H]1C[C@@](O)(NC(=O)O1)C(OC)/C=C/C=C(\C)C2 (stereo partly shown) [BI-P206], the “Aggregation rate (%)” value ([1]; DAR 3.6) is reported as 0.76%.

With COc1cc2cc(c1Cl)N(C)C(=O)C[C@H](OC(=O)C1CCN(C(=O)CCOCCOCCOCCOCCOCCOCCNC(=O)CCN3C(=O)C=CC3=O)CC1)[C@@]1(C)O[C@H]1[C@H](C)[C@@H]1C[C@@](O)(NC(=O)O1)C(OC)/C=C/C=C(\C)C2 (stereo partly shown) [BI-P207] the “Aggregation rate (%)” value ([1]; DAR 3.4) was 1.02%.

B1: Anti-Trop-2-BI-P203 (antibody, V domains shown)
VH: SALMSRLTISKDTSKNQFSLKLSSVTAADTAVYYCARDENWDGAWFAYWGQGTLVTVSS
VL: DIVMTQSPDSLAVSLGERATINCKSSQSLLNSGTRKNYLAWYQQKPGQPPKLLISWASSRESGVPDRFSGSGSGTDFTLTISSLQAEDVAVYYCKQSYNLFTFGGGTKVEIKR
modifications: BI-P203 maytansinoid drug-linker on reduced cysteines via the maleimide group; positions not given; DAR 3.5, 5.1 or 7
In the case of B1, the “IC50 (nM), in vitro cytotoxicity (CCK-8, 72 h), BxPC-3 cells (TROP2 +++), ADC at DAR 3.5” value [3] is reported as 0.48 nM, the “IC50 (nM), in vitro cytotoxicity (CCK-8, 72 h), BxPC-3 cells (TROP2 +++), ADC at DAR 7” value [3] is reported as 0.59 nM and the “IC50 (nM), in vitro cytotoxicity (CCK-8, 72 h), Colo205 cells (TROP2 +), ADC at DAR 7” value [3] is reported as 31.8 nM. The “IC50 (nM), in vitro cytotoxicity (CCK-8, 72 h), MDA-MB-468 cells (TROP2 ++), ADC at DAR 5.1” value [3] was 1.2 nM, the “IC50 (nM), in vitro cytotoxicity (CCK-8, 72 h), MDA-MB-468 cells (TROP2 ++), ADC at DAR 7” value [3] was 0.77 nM and the “IC50 (nM), in vitro cytotoxicity (CCK-8, 72 h), NCI-N87 cells (TROP2 ++/+), ADC at DAR 3.5” value [3] was 8.93 nM. The “IC50 (nM), in vitro cytotoxicity (CCK-8, 72 h), NCI-N87 cells (TROP2 ++/+), ADC at DAR 7” value [3] was 0.62 nM.

B2: Anti-Trop-2-SMCC-DM1 (antibody, V domains shown)
VH: SALMSRLTISKDTSKNQFSLKLSSVTAADTAVYYCARDENWDGAWFAYWGQGTLVTVSS
VL: DIVMTQSPDSLAVSLGERATINCKSSQSLLNSGTRKNYLAWYQQKPGQPPKLLISWASSRESGVPDRFSGSGSGTDFTLTISSLQAEDVAVYYCKQSYNLFTFGGGTKVEIKR
modifications: SMCC-DM1 on lysines; positions not given; DAR 4
With B2 the “IC50 (nM), in vitro cytotoxicity (CCK-8, 72 h), BxPC-3 cells (TROP2 +++), ADC at DAR 4” value [3] was 1.01 nM, the “IC50 (nM), in vitro cytotoxicity (CCK-8, 72 h), Colo205 cells (TROP2 +), ADC at DAR 4” value [3] was 56.4 nM and the “IC50 (nM), in vitro cytotoxicity (CCK-8, 72 h), MDA-MB-468 cells (TROP2 ++), ADC at DAR 4” value [3] was 4.88 nM. The “IC50 (nM), in vitro cytotoxicity (CCK-8, 72 h), NCI-N87 cells (TROP2 ++/+), ADC at DAR 4” value [3] was 2.88 nM.
